# According to publication PMC6105217, “Modification of translation factor aIF5A from Sulfolobus solfataricus” (Extremophiles, 2018):
# B1: recombinant aDHS-C-His (enzyme, Sulfolobus solfataricus, UniProt Q97ZF1 1-312, looked up)
# chain: MINREDLLKNPVEDITLSDLKKYNDIVSVFDKIYGFSSEGIVNGSKILKEMIKNADLRFLSFTANLVSTGLRGLFADLIKKGYFNIVVTTGGTIDHDLARSFGGVYYKGSFDIDDTMLKDLEIHRLGNVLVPFESYGKVIEDVVRKFLPEITKDRKEISAYELLWEFGKRITDSNSILRAAYDKNVPIIVPGILDGSFGTNLFIQSQFLNFRINLFEDMRLIKDLIFSSKKSGALIIGGGISKHHTIWWNQFKDGLNYAIYITTAQEYDGSLSGAKPREAISWNKIRPDAKHVTIYGDATIIVPILAASLLS
# notes: deoxyhypusine synthase, Sulfolobus solfataricus P2, ORF SSO0967, amplified by PCR from genomic DNA; source: E. coli BL21 (DE3) (pQE-70-DHS-C-His), purified (Ni-NTA); not shown: His-tag, C-terminal, kept
# Target: the molecule itself
# Assay: SEC-MALS; Superdex S200 10/300 GL increase, 20 mM Tris-HCl pH 7.5, 150 mM NaCl, 25 °C; protein pre-incubated at 65 °C for 10 min, 100 µl injected at 1.5 mg/ml
protein,measurement,value
B1,stoichiometry N,4
